Results reported in the domain aggregation screens of Martell et al. (2025).

Test: soluble fraction after stress (log2 fold change); higher = more stays soluble; pooled small domains, quantitative proteomics
Settings: stress: pH 4
Summary of the method: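 How much of each domain stays soluble after acid stress, expressed as a fold change, is used to gauge aggregation propensity. Pooled custom libraries of small domains underwent pH 4 stress before high-throughput quantitative proteomics. A higher log2 value means more of the domain stayed soluble.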

Sequence | soluble fraction (log2)
HMAAEGARNNSLFNSLRERALEVSSHNELEQIAFKMNETNIPPLRASEVISVVNSVWKNRISNQIIP | -0.0841
HMAAFGDLLSELRRDMNMTQDELAKVLFVSPGTISNYENNIHFPDVPKLKQIAQYFGVTTDYLLG | -1
HMAAINTYQVRKIYAIAGALGMKSRDGDDALHDLVFGMTGKQHISGLTSAEAYDVIAELEKKQ | -0.223
HMAALKVAVLTVSDTRTQETDTSGAFLEGALREAGHEIADRQIVIDDVYQLRAIVSQWIADPEVEVILT | -1.31
HMAALTADEAKQIALKHAGVAESDVQRLKVEQDRDDGRLLYEVEWDVGRTEYSYEIDANTGDILNYEKDV | -0.361
HMAANKIDEDRNTELLQVIQNKFPDADAATKKSVKEIMKEHDIPNFKNADDIPTAVLEQIVKVLNQ | -0.128
HMAAPLTDRETEVLTLLARGLINKQIAEELHIGLTTVITHRRNIMEKLRVRSLAELILRAVAAGYVDAGR | -0.78
HMAARKDLIAGEDAEGRLDAWLAAALDGEFSRNRVKALIEQGAVAINDVAVTEPKRKIRPGDRLSIVLPEP | 0.248
HMAARLMRALIPYAQGGLLAKLHEDGQVLSEEYTGEGIEVKALADEQLFGRLTVQLGEQAVSWQD | -0.205
HMAASTPGTVTGSVVNVRPDPSTNNDRIGVIYQGTKVEILAQVGEWYNIQFGPVSGWVHKDYISTGA | -0.161
HMAATISPEIQAEAEKAAALGVESIKNFMASLKEKNPEQHALFSDSEKRRLYAIARKADLNTTQQG | 0.0597
HMAAVPQPQRSETIVYIGGRKFYVHTVQAGETLYSIARLYGVSEQTLVANNPTMADVVKADQNVRIPVPA | -0.00329
HMAAYRLIPLGNSNKDFETYQEAIQYMRDKLDESSKAFEEGKQNWVYSGRVYGVPWSDGRTTFTVDLVPKV | 0.0755
HMADASVTAYFKIAEDRLQGRLPDTFSEASLKARYQLTPAQLTAVLTRIAQEGWAERKPGYGWAFSSML | -1
HMADEIMYPVQVNGKVRAEIFVAADQSKNKELVLEMAKSEERVQKYLEEGNLIKEIFVPGRIVNLVI | -0.269
HMADEIQIGLQKAIQSLPEKQKLVFSMRYYDEIPYDEMSKILDMSVGTLKTNYHYAKQKIEDFLQNH | -0.0771
HMADFIGMNATVTERIFPQGFGRISFVYEGNSISEPARSEDGKEIPTGTSVVVLEVRDKVYIVQPL | -0.0827

Sequence | soluble fraction (log2)
HMADGDIIPEGQRDATLASLAGSMRARGMTEAEILAALQVTNETRVRPPMALADLERIARSIGRYEPGK | 0.0649
HMADKGTITNQQEKILKALILFPEGASIEEIQKAADLGIDKRQFQRRLNTLIESGQINRTGKSRGTKYHTI | 0.356
HMADLKVGFVHRAGSVLERELDDVLEALEMYRSALAIDPSHKPSLDALTRISQLADYREQAAEILEPLPR | -1.04
HMADLNFHQQIRSLPPEQQEILLLRFGQELTLRQIAQVTGVPLRTVQSRLRAALKKLKSQLEKEE | -0.0215
HMADLPQATALADVKGDVQMQGIQFGYDPEKIIIHDLNLHARPGSLVAIVGPTGAGKTTIINLLMRFYD | 0.124
HMADLVYLRKRLQDAIAQLPEDMRTAYTLFQIARRSIREIAELTGASESLVKVRIHRAKGKLQELLEDLR | -0.55
HMADPAVLIAELFRAMPEKRFSVKNLISATGAETREQKDYVREVVHSLSREGMIEQVAEGKYRLSASE | 0.241
HMADQVLVMTRAVGQGDIVRNADIGLTSVAVDRAVATIPASQLDKIVGRHALVDLSPGQLLGSHSVGE | 0.107
HMADRDKYIIMGQQLLRAAFEHFGKKATDKALENAANKLRISDVPELYARLGSAELQPRDVINVIFPD | -0.0521
HMADRLITLSEVASLLRVSRHTVQAWISPSSPNHRPEFAIMARHAGRRTVFIEAEVTAWLDQRRG | -0.7
HMADVSPEAQHKMVEAFAQFGVTKEHIEQRIQRRLDAIQPAQMVTLKRIFASLRDGMSTPAEWFE | -1.03
HMADYSGYLGKKGKVIAPLRPAGTALIDGERVDVVSFGDYIDKDSEIEVVKIEGSKLLVKKY | 0.128
HMAEAIVMSTAAPVKSSPDPQSKDIFVLHEGTKVAVGDSLGDWREIRIADGNKGWVLVSAIEMI | -0.173
HMAEDGNMTFEEYAKRWLARQVRYAPSTLESYRRMLGRVYPFIGAIPINRLRPIALENLLAELRKRT | -0.0982
HMAEEFESMTEARRLELARLVDSRGFVRVTDAAEELGVSDVTIRGDLSELERRGLLTRVHGGAMPVT | -0.366
HMAEKEYYYATDALNLRQGPGMEHTVKGEVVLGERVALLGLEGKWAKIQNAQGTTGYVFSAYLAPS | -0.147
HMAEMLENQLKHAKSKQEANEYIAAAIGGVSDDDPDKEYLVAAYNEISKEFHHSSAYHRLPDT | ≥ 0.43
